These are literature values, as cited in article PMC3128382.

For the data set, the target named is TbpA (Neisseria gonorrhoeae) (UniProt Q01996).
UniProt Q01996, sequence (Q01996 25-915): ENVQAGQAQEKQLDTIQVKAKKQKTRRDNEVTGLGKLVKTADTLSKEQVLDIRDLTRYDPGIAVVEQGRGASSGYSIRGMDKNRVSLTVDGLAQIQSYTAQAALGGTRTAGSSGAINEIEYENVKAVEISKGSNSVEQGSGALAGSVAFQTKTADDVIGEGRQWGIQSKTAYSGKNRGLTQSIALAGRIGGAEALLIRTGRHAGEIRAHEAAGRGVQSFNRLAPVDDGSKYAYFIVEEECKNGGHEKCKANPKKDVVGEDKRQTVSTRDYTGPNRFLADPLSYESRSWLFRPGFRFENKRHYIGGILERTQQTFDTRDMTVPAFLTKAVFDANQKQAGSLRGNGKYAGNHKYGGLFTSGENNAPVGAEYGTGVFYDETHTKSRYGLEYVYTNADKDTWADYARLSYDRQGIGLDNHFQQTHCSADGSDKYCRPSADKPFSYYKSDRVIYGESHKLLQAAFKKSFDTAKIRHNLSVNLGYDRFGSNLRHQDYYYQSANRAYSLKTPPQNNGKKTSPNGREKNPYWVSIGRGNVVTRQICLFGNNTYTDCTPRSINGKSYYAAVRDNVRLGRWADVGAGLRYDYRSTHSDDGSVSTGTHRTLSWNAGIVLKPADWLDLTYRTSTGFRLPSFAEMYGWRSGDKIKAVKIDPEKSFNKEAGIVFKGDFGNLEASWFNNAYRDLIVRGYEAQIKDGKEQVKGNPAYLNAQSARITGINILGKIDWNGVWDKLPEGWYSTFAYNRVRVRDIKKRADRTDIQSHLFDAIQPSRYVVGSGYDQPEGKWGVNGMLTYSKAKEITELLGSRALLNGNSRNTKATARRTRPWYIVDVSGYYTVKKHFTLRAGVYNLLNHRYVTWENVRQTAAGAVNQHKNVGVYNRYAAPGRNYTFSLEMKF

As for Transferrin (from UniProt P02787), the Kd is 10 nM.

Usually Kd stands for the concentration at which binding is half-saturated.
